Source: US20230144436A1 (DYNE THERAPEUTICS, published 2023)

T1: cynomolgus monkey transferrin receptor 1 (cynomolgus monkey (Macaca fascicularis), UniProt Q5RDH6 89-760 (Pongo abelii entry), limits assumed)
T1 construct: also called cyTfR1; Cyno TfR1
T1 chain: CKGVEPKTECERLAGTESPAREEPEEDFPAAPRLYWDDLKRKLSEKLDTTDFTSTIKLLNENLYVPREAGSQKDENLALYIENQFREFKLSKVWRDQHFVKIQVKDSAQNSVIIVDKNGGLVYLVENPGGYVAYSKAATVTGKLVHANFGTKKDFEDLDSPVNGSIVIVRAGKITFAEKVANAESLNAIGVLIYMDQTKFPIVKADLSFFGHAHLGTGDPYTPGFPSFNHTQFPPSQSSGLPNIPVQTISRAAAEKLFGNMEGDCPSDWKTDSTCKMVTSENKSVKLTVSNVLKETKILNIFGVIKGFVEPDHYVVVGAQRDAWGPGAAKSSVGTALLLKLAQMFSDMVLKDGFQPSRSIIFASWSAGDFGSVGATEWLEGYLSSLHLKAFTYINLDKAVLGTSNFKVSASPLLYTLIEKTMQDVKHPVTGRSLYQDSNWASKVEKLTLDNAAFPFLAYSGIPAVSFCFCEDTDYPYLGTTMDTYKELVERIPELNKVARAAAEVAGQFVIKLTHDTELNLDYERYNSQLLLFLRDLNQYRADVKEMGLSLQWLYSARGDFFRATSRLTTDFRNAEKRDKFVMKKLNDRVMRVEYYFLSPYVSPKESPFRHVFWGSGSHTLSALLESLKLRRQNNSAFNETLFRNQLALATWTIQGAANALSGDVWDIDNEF

B1: 6-D3 (antibody, V domains shown)
VH: QVQLQQPGAELVKPGASVKMSCKASGYTFTRHWITWVKQRPGQGLEWIGDIYPGSGRTNYNEKFKSTATLTVDTSSSTAYMQLSSLTSEDSAVYYCARDGYLYINYFDYWGQGTTLTVSS
VL: ENVLTQSPAIMSASPGEKVTMTCSASSSVSFMHWFQQKSSTSPKLWIYDTSKLASGVPGRFSGSGSGSSYSLTISSMAAEDVATYYCFQGSGYPYTFGGGTKLEIK
notes: Tested as a mouse monoclonal IgG; also called 6-D03
B2: 5-H12 (antibody, V domains shown)
VH: QIQLQQSGPELVRPGASVKISCKASGYSFTDYCINWVNQRPGQGLEWIGWIYPGSGNTRYSERFKGKATLTVDTSSNTAYMQLSSLTSEDSAVYFCAREDYYPYHGMDYWGQGTSVTVSS
VL: DIVLTQSPTSLAVSLGQRATISCRASESVDGYDNSFMHWYQQKPGQPPKLLIFRASNLESGIPARFSGSGSRTDFTLTINPVEAADVATYYCQQSSEDPWTFGGGTKLEIK
notes: Tested as a mouse monoclonal IgG
B3: 8-K6 (antibody, V domains shown)
VH: QVHLQQPGAELVKPGASVKMSCKASGYTFTSYWITWVKQRPGQGLEWIGDIFPNSGRTNYDEKFKSKATLTVDTSSSTAYMQLSSLTSEDSAVYFCAREGNFGSLDYWGQGTTLTVSS
VL: QIVLTQSPAIMSASPGEKVTMTCSANSNLNYMNWYHQKSGTSPKRWIYDTSKLASGVPARFSASGSGTSYSLTISSMEAEDAATYYCQQWSRNPLTFGAGTRLELK
notes: Tested as a mouse monoclonal IgG; also called 8-K06
B4: 3-A4 (antibody, V domains shown)
VH: EVQLQQSGAELVRPGASVKLSCTASGFNIKDDYMYWVKQRPEQGLEWIGWIDPENGDTEYASKFQDKATVTADTSSNTAYLQLSSLTSEDTAVYYCTLWLRRGLDYWGQGTSVTVSS
VL: DIVMTQAAPSVPVTPGESVSISCRSSKSLLHSNGYTYLFWFLQRPGQSPQLLIYRMSNLASGVPDRFSGSGSGTAFTLRISRVEAEDVGVYYCMQHLEYPFTFGGGTKLEIK
notes: Tested as a mouse monoclonal IgG; also called 3-A04
B5: 9-K23 (antibody, V domains shown)
VH: QVTLKESGPGMLQPSQTLSLTCSFSGFSLNTYDVGVGWIRQPSGKGLEWLANIWWNDDKYYNSALKSRLTISKDTSNNQVFLKISSVDTADTATYYCTLYSYDGGFAYWGQGTLVTVSA
VL: QIVLTQSPAIMSASLGERVTMTCTASSSVSSSYLHWYQQKPGSSPKLWIYSTSNLASGVPARFSGSGSGTSYSLTISSMEAEDAATYYCHQYHRSPYTFGGGTKLEIK
notes: as for B2
B6: 4-J22 (antibody, V domains shown)
VH: EVQLQQSGAELVRSGASVKLSCTASGFNIKDYYIHWVKQRPEQGLEWIGWIDPENADTEYAPKFQGKATMTPDTSSNTAYLQLSSLTSEDTAVYYCYAWDYSMDYWGQGTSVTVSS
VL: DVVMTQTPLSLSVSLGDQASISCRSSQSLVHSNGNTYLHWYLQKPGQSPKLLIYKVSNRFSGVPDRFSGSGSGTDFILKISRVEAEDLGVYFCSQNTHVPYTFGGGTRLEIK
notes: as for B2
B7: 4-C5 (antibody, V domains shown)
VH: QVQLQQSGAELMKPGASVKISCKATGYTFSNYWIEWVKQRPGHGLEWIGEILPGSGSTNYNENFKGKATFTADTSSNTAYMQLSSLTSEDSAVYYCARRGAYGNFHYWGQGTTLTVSS
VL: EIVLTQSPALMAASPGEKVTITCSVSSSISSSNLHWYQQKSETSPKPWIYGTSNLASGVPVRFSGSGSGTSYSLTISSMEAEDAATYYCQQWRSYPYTFGGGTKLEIK
notes: Tested as a mouse monoclonal IgG; also called 4-C05
B8: 4-O12 (antibody, V domains shown)
VH: EVQLQQSGAELVRPGASVKLSCTASGFNIVDDYMHWVKQRPEQGLEWIGWIYPENADTEYASKFQGKATITADTSSNTAYLQLSSLTSEDTAVYYCTTATGTGWFAYWGQGTLVTVSA
VL: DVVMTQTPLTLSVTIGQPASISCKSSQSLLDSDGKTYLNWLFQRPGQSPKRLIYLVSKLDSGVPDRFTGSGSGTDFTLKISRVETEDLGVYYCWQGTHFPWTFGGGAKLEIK
notes: as for B2
B9: 8-D15 (antibody, V domains shown)
VH: QVQLKESGPGLVAPSQSLSITCTVSGFSLTSYAITWVRQSPGKGLEWLGLIWTGGGTNYNSALKSRLSISKDNSKSQVFLKMNSLQTDDTARYYCARIYDGYYRYFDVWGTGTTVTVSS
VL: RIVLTQTPKFLLVSAGDRVTMTCKASQSVSNDVAWYQQKPGQSPKLLIYYASNRYTGVPDRFTGSGYGTDFTFTISTVQAEDLAVYFCQQDYSSPWTFGGGTKLEIK
notes: as for B2
B10: 3-M12 (antibody, V domains shown)
VH: DVQLQESGPGLVKPSQSLSLTCSVTGYSITSGYYWNWIRQFPGNKLEWMGYITFDGANNYNPSLKNRISITRDTSKNQFFLKLTSVTTEDTATYYCTRSSYDYDVLDYWGQGTTLTVSS
VL: DIQMTQTTSSLSASLGDRVTISCRASQDISNFLNWYQQRPDGTVKLLIYYTSRLHSGVPSRFSGSGSGTDFSLTVSNLEQEDIATYFCQQGHTLPYTFGGGTKLEIK
notes: as for B2
B11: 9-D4 (antibody, V domains shown)
VH: QVQLQQSGTELARPGASVKLSCKASGFTFTDYGINWVKQRTGQGLEWIGEIYPSSGNSYYNEKFKAKATLTADKSSSTAYMELRSLTSEDSAVYFCARSTYYGSPIDYWGQGTTLTVSS
VL: DIVMTQSHKFMSTPVGDRVSITCKASQDVDTTVAWYQQKPGQSPKLLIYWASTRQIGVPDRFTGSGSGTDFTLTISNVQSEDLADYFCQQYSTYPLTFGGGTKLEIK
notes: Tested as a mouse monoclonal IgG; also called 9-D04
B12: 3-M9 (antibody, V domains shown)
VH: EVQLQQSGAELVRPGASVKLSCTASDFNIKDDYIHWVKQRPEQGLEWIGRIDPANGNTKYAPKFQDKATITADTSSNTAYLQLSSLTSEDTAVYYCALGYTYWGQGTTLTVSS
VL: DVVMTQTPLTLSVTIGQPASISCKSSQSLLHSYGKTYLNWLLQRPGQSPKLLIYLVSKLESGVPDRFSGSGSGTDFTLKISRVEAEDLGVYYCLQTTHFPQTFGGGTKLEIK
notes: Tested as a mouse monoclonal IgG; also called 3-M09
B13: 9-C4 (antibody, V domains shown)
VH: EVQLMESGGDLVKPGGSLKLSCAASGFTFSSYGLSWVRQTPDKRLEWVATITSGGSYTYYPDSVKGRFTISRDNARNTLYLQMFSLKSEDTAMYYCALWSLDYWGQGTTLTVSS
VL: QIVLTQSPAIMSASPGEKVTMTCSANSSLSYMHWYQQKPGTSPKRWIYDTSELASGVPARFSGSGSGTSYSLTISSMEAEDAATYYCHQRRSYPWTFGGGTKLEIK
notes: Tested as a mouse monoclonal IgG; also called 9-C04
B14: 8-O17 (antibody, V domains shown)
VH: QVQLKESGPGLVAPSQSLSITCTVSGFSLTNYGVHWVRQPPGKGLEWLVVIWNDGSATYNSALESRLSISKDNSKSQVFLKMNSLQTDDTAMYYCARHESSNPFAYWGQGTLVTVSA
VL: DILLTQSPAILSVSPGERVSFSCRASQSIGTSIHWYQQRTNGSPRLLIKSASESIAGIPSRFSGSGSGTDFTLSINSVESEDIADYYCQQNNRWPYTFGGGTKLEIK
notes: as for B2

Legend:
[1] = target: T1, cynomolgus monkey transferrin receptor 1; assay: average KD, antibody alone; method not given
[2] = target: T2, human transferrin receptor 1 (human, UniProt P02786 89-760, limits assumed); assay: average KD, antibody alone; method not given
T2 construct: also called hTfR1; huTfR1

[3] = target: T2, human transferrin receptor 1; assay: Carterra LSA SPR array, IgG captured on anti-IgG lawn, hTfR1 as analyte, 25 C, 1:1 Langmuir fit
Procedure: Selected anti-TfR1 antibodies were tested for their binding affinity to human TfR1 for measurement of Ka (association rate constant), Kd (dissociation rate constant), and KD (affinity). […] The binding experiment was performed on Carterra LSA at 25 C. An anti-mouse IgG and anti-human IgG antibody “lawn” was prepared on a HC30M chip by amine coupling. 59 IgGs (58 mouse mAbs and 1 human mAb) were captured on the chip. Dilution series of hTfR1, cyTfR1, and hTfR2 were injected to the chip for binding (starting from 1000 nM, 1:3 dilution, 8 concentrations).
Binding data were referenced by subtracting the responses from a buffer analyte injection and globally fitting to a 1:1 Langmuir binding model for estimate of Ka (association rate constant), Kd (dissociation rate constant), and KD (affinity) using the Carterra™ Kinetics software. 5-6 concentrations were used for curve fitting.

| Binder | Kd [1] [nM] | Kd [2] [nM] | Kd [3] [nM] | kon [3] [M⁻¹ s⁻¹] |
| --- | --- | --- | --- | --- |
| B1 | 0.778 | 0.986 | 0.986 | 108000 |
| B2 | 12 | 202 | 208 | 66700 |
| B3 | 0.376 | 0.0678 | 0.0694 | 144000 |
| B4 | 2.32 | 0.436 | 0.436 | 447000 |
| B5 | 0.662 | 0.32 | 0.401 | 54000 |
| B6 | 1.37 | 3.41 |  |  |
| B7 | 13.6 | 1.38 | 1.61 | 30100 |
| B8 | 270 | 1.27 | 1.8 | 79800 |
| B9 | 11.1 | 9.15 | 8.22 | 31300 |
| B10 | 5.18 | 0.768 | 0.768 | 166000 |
| B11 | 0.868 | 5.8 | 5.86 | 42000 |
| B12 | 4.37 | 2.5 | 2.54 | 150000 |
| B13 | 12 | 14.8 | 14.1 | 41000 |
| B14 | 1.1 | 2.24 | 1.83 | 49900 |
